We go through three molecules from patent US20150353638A1 (INSTITUTE OF BASIC MEDICAL SCIENCES CHINESE ACADEMY OF …, published 2015).

The chains are these.
B1: humanized anti-human DR5 monoclonal antibody AD15 (antibody, human IgG1, kappa)
heavy: not shown
light: DVVMTQSPLSLPVTPGEPASISCRSSQSLVHSNGNTYLHWYLQKPGQSPQLLIYKVSNRFSGVPDRFSGSGSGTDFTLKISRVEAEDVGVYFCFQSTHVPHTFGQGTKLEIKRTVAAPSVFIFPPSDEQLKSGTASVVCLLNNFYPREAKVQWKVDNALQSGNSQESVTEQDSKDSTYSLSSTLTLSKADYEKHKVYACEVTHQGLSSPVTKSFNRGEC
notes: Humanized from murine AD5-10 by CDR grafting; human IgG1 heavy chain constant region and kappa light chain
B2: humanized anti-human DR5 monoclonal antibody AD10 (antibody, human IgG1, kappa, V domains shown)
VH: EIQLVQSGPELKKPGASVKVSCKASGYTFTDFSMNWVRQAPGQGLKWMGWINTETGEPTYADDFKGRFALSMDTSVSTAYLQISSLKAEDTAVYFCVRIDYWGQGTTVTVSS
VL: DIVMTQSPLSLPVTPGEPASISCRSSQSLVHSNGNTYLHWYLQKPGQSPQLLIYKVSNRFSGVPDRFSGSGSGTDFTLKISRVEAEDVGVYYCFQSTHVPHTFGQGTKLEIKR
notes: as for B1
B3: humanized anti-human DR5 monoclonal antibody AD14 (antibody, human IgG1, kappa)
heavy: not shown
light: B1 light
notes: as for B1

Usually Kd stands for a measure of binding affinity in units of concentration. As a reminder, the koff is the rate constant with which the complex falls apart. Read a high koff as fast dissociation. What is called kon is the rate constant with which the complex forms. Read a high kon as faster complex formation.

In this experiment the target is T1, antigen DR5 (human death receptor 5), immobilised on the CM5 chip (human, UniProt O14763 56-182, limits assumed).
T1 construct: The title says the antibodies are against the extracellular domain, but the construct used is not described; also called TRAIL receptor 2; TRAIL-R2
Briefly: SPR (Biacore X100), DR5 immobilised on CM5 chip, antibody injected as analyte.
The molecule B1 showed a Kd of 2.95 nM, a koff of 0.0097 s⁻¹ and an on-rate (kon) of 3.28e+06 M⁻¹ s⁻¹.
In the same order, the values of B2 are 3.51 nM, 0.0198 s⁻¹ and 5.64e+06 M⁻¹ s⁻¹.
Turning to B3, the Kd worked out at 1.65 nM, the koff is 0.014 s⁻¹ and the kon came to 8.44e+06 M⁻¹ s⁻¹.
